Experimental data from paper PMC5646240, “Norovirus Escape from Broadly Neutralizing Antibodies Is Limited to Allostery-Like Mechanisms” (mSphere, 2017).

B1: monoclonal antibody 2D3.7 (IgA) (antibody, V domains shown)
VH: VQLQESGPGLVAPSQSLSITCTVSGFSLTSYGVHWIRQPSGKGLEWLGVIWPGGSTNYNSALMSRLSISKDNSQSQVVLKMNSLQTDDSAMYYCARGRVAAWFAYWGQGTLVTVSA
VL: DIVMTQSQKFMSTSVGDRVSVTCTASQNVGTSVAWYLQRPGQSPEALIYSASYRNSGVPDRFTGSGSGTDFTLTISNVQSEDLADYFCQQYNNYPFTFGSGTKLEIK
notes: VH before the CDR3 loop; heavy chain CDR3 loop as printed; nearly identical to the light chain variable domain of PDB 2AEQ; IgA; also called MAb 2D3; IgA MAb 2D3
B2: murine norovirus MNV1.CW3 (GV/MNV1/2002/USA) virions, capsid protein (natural protein)
chain: MRMSDGAAPKANGSEASGQDLVPAAVEQAVPIQPVAGAALAAPAAGQINQIDPWIFQNFVQCPLGEFSISPRNTPGEILFDLALGPGLNPYLAHLSAMYTGWVGNMEVQLVLAGNAFTAGKVVVALVPPYFPKGSLTTAQITCFPHVMCDVRTLEPIQLPLLDVRRVLWHATQDQEESMRLVCMLYTPLRTNSPGDESFVVSGRLLSKPAADFNFVYLTPPIERTIYRMVDLPVIQPRLCTHARWPAPVYGLLVDPSLPSNPQWQNGRVHVDGTLLGTTPISGSWVSCFAAEAAYKFQSGTGEVATFTLIEQDGSAYVPGDRAAPLGYPDFSGQLEIEVQTETTKTGDKLKVTTFEMILGPTTNADQAPYQGRVFASVTAAASLDLVDGRVRAVPRSIYGFQDTIPEYNDGLLVPLAPPIGPFLPGEVLLRFRTYMRQIDTADAAAEAIDCALPQEFVSWFASNAFTVQSEALLLRYRNTLTGQLLFECKLYNEGYIALSYSGSGPLTFPTDGIFEVVSWVPRLYQLASVGSLATGRMLKQ
notes: capsid protein (VP1) of murine norovirus 1, strain MNV1.CW3, in whole infectious virions; S domain and P domain; Whole virions with a T=3 capsid; the antigen of the antibodies is the capsid protein; The UniProt entry recalled is of MNV1, not checked for the CW3 clone; also called MVV1; source: RAW 264.7 cells, infected; concentrated virus stock (ELISA); purified virions (ultracentrifugation, …)

Experiments:
[1] = biological target: T1, human norovirus GII.12 Hiro virus-like particles (Human norovirus GII.12 Hiro, UniProt Q54AD6, strain); assay: ELISA; data not shown; HuNoV VLPs (1 µg of each VLP per well in 100 µl PBS, 24 h at 4°C) tested with the MAbs; conditions: both partners purified
T1 construct: capsid protein of human norovirus GII.12 Hiro, as virus-like particles; also called Hiro [GII.12]; source: provided by Grant Hansman (University of Heidelberg); expressed and purified as previously described (62)

[2] = biological target: T2, human norovirus GII.4 Sydney (2012-Sydney) virus-like particles (Human norovirus GII.4 …, UniProt K4LM89, strain); assay: as above; conditions: both partners purified
T2 construct: capsid protein of human norovirus GII.4 Sydney (2012), as virus-like particles; also called 2012-Sydney [GII.4]; source: provided by Grant Hansman (University of Heidelberg); expressed and purified as previously described (62)

[3] = biological target: T3, human norovirus genogroup I Norwalk virus (NV) virus-like particles (Human norovirus GI, strain of AY502016 …, UniProt Q6EAV2); assay: as above; conditions: both partners purified
T3 construct: capsid protein of human norovirus genogroup I strain Norwalk virus, as virus-like particles; also called Norwalk virus VLP; source: provided by Grant Hansman (University of Heidelberg); expressed and purified as previously described (62)

[4] = biological target: T4, human norovirus GII.4 Saga (2006-Saga) virus-like particles (Norovirus Hu/GII-4/Saga1/2006/JP …, UniProt B5BTR4, strain); assay: as above; conditions: both partners purified
T4 construct: capsid protein of human norovirus GII.4 Saga (2006), as virus-like particles; also called 2006-Saga [GII.4]; source: provided by Grant Hansman (University of Heidelberg); expressed and purified as previously described (62)

[5] = biological target: T5, human norovirus GII.10 Vietnam026 virus-like particles (Human norovirus GII.10 Vietnam026, UniProt Q5F4T5, strain); assay: as above; conditions: both partners purified
T5 construct: capsid protein of human norovirus GII.10 Vietnam026, as virus-like particles; also called Vietnam026 [GII.10]; source: provided by Grant Hansman (University of Heidelberg); expressed and purified as previously described (62)

[6] = biological target: murine norovirus CR7 (GV/CR7/2005/USA) virions, capsid protein (Murine norovirus GV/CR7/2005/USA, UniProt A7YK34, strain); assay: cell-based or functional assay
[7] = biological target: murine norovirus CR6 (GV/CR6/2005/USA) virions, capsid protein (Murine norovirus GV/CR6/2005/USA, UniProt A7YK31, strain); assay: cell-based or functional assay
[8] = biological target: murine norovirus MNV3 virions, capsid protein (Murine norovirus, strain MNV3, UniProt Q38JA1, strain); assay: cell-based or functional assay
[9] = biological target: murine norovirus MNV4 virions, capsid protein (Murine norovirus, strain MNV4, UniProt Q38J98, strain); assay: cell-based or functional assay
[10] = biological target: murine norovirus MNV1.CW3 (GV/MNV1/2002/USA) virions, capsid protein (murine norovirus (MNV1.CW3), UniProt Q80J94); assay: cell-based or functional assay
[11] = biological target: murine norovirus WU11 (GV/WU11/2005/USA) virions, capsid protein (Murine norovirus GV/WU11/2005/USA, UniProt A7YJZ2, strain); assay: cell-based or functional assay
[12] = biological target: murine norovirus WU20 (GV/WU20/2005/USA) virions, capsid protein (Murine norovirus GV/WU20/2005/USA, UniProt A7YJZ8, strain); assay: cell-based or functional assay
[13] = biological target: murine norovirus CR3 (GV/CR3/2005/USA) virions, capsid protein (Murine norovirus GV/CR3/2005/USA, UniProt A7YK22, strain); assay: cell-based or functional assay
[14] = biological target: murine norovirus CR1 (GV/CR1/2005/USA) virions, capsid protein (Murine norovirus GV/CR1/2005/USA, UniProt A7YK19, strain); assay: cell-based or functional assay
[15] = biological target: murine norovirus S99 (Berlin/06/06/DE) virions, capsid protein (murine norovirus (strain S99))
[16] = biological target: the molecule itself; assay: cryo-EM structure; 2D3 Fab added to purified infectious MNV1 virions; image reconstruction at 8.7 Å (FSC 0.143) / 9.9 Å (FSC 0.5), fitted with atomic models of the P domain dimer and a modelled Fab

Row | Binder | binding result [1] | binding result [2] | binding result [3] | binding result [4] | binding result [5] | plaque neutralization assay: 5 × 10^4 PFU with 0 to 1,000 ng MAb, 30 min at 37°C; virus titer relative to no antibody [6] | plaque neutralization assay: 5 × 10^4 PFU with 0 to 1,000 ng MAb, 30 min at 37°C; virus titer relative to no antibody [7] | plaque neutralization assay: 5 × 10^4 PFU with 0 to 1,000 ng MAb, 30 min at 37°C; virus titer relative to no antibody [8] | plaque neutralization assay: 5 × 10^4 PFU with 0 to 1,000 ng MAb, 30 min at 37°C; virus titer relative to no antibody [9] | plaque neutralization assay: 5 × 10^4 PFU with 0 to 1,000 ng MAb, 30 min at 37°C; virus titer relative to no antibody [10] | plaque neutralization assay: 5 × 10^4 PFU with 0 to 1,000 ng MAb, 30 min at 37°C; virus titer relative to no antibody [11] | plaque neutralization assay: 5 × 10^4 PFU with 0 to 1,000 ng MAb, 30 min at 37°C; virus titer relative to no antibody [12] | plaque neutralization assay: 5 × 10^4 PFU with 0 to 1,000 ng MAb, 30 min at 37°C; virus titer relative to no antibody [13] | plaque neutralization assay: 5 × 10^4 PFU with 0 to 1,000 ng MAb, 30 min at 37°C; virus titer relative to no antibody [14] | plaque neutralization assay: 5 × 10^4 PFU with 0 to 1,000 ng MAb, 30 min at 37°C; virus titer relative to no antibody [15] | binding result [16]
1 | B1 | no binding | no binding | no binding | no binding | no binding | ≥ 1 log | ≥ 1 log | ≥ 1 log | ≥ 1 log | ≥ 1 log | ≥ 1 log | ≥ 1 log | ≥ 1 log | ≥ 1 log | > 1 log | 
2 | B2 |  |  |  |  |  |  |  |  |  |  |  |  |  |  |  | binds
